The source of these data is patent US5576294A, “Human Kunitz-type protease inhibitor variant” (Novo Nordisk A/S, priority 1992, dated 1996).

For one experiment, the system named is collagenase. The conditions noted are these: Wenzel and Tschesche 1981; cited from earlier work.
For the next experiment, the target named is T1, granulocyte elastase (Homo sapiens, UniProt P08246).
T1 sequence (P08246 30-267): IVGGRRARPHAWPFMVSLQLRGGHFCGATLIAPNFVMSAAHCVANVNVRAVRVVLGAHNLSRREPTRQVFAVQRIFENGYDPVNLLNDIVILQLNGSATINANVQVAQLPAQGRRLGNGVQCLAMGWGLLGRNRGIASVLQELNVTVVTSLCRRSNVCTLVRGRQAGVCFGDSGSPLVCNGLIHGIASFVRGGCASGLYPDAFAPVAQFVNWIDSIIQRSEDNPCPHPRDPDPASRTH
To be noted: Wenzel and Tschesche 1981; cited from earlier work.

For experiment [1], the target named is Porcine trypsin (porcine) (UniProt P00761). As to the kind of experiment: proteinase inhibition: enzyme incubated 30 min with KFN 1593, residual activity on peptidyl nitroanilide substrate at 405 nm.
In experiment [2] the target is Factor Xa (as used in Example 3) (Homo sapiens (Human)) (UniProt P00742). The experiment is described as above.
Experiment [3] has as its target Porcine trypsin (porcine) (UniProt P00761).
Experiment [4] deals with T2, Human neutrophil cathepsin G (Homo sapiens, UniProt P08311).
T2 construct: Human neutrophil cathepsin G was purified from extracts of PMNs; from tissue; host or cells: extracts of human polymorphonuclear leukocytes (PMNs), method of Baugh and Travis
T2 sequence (P08311 21-255): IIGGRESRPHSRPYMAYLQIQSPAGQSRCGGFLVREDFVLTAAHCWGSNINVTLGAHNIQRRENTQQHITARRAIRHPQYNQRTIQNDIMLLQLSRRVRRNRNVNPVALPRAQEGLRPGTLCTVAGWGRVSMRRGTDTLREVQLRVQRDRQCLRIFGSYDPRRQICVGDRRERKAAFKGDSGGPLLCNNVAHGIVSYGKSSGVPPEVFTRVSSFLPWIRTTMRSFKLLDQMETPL
As to the kind of experiment: Inhibition of serine proteinases: neutrophil cathepsin G. The class given is biochemical. To be noted: Example 3; 30 min incubation, FIG. 3. As for the experimental part: (§1) KFN 1593 was purified from yeast culture medium as described in example 1. The concentration of KFN 1593 was determined using 1% E280 nm =8.3 and Mw =6500. Porcine trypsin was from Novo Nordisk (Bagsv.ae butted.rd, Denmark), bovine chymotrypsin (TLCK treated) and porcine pancreatic kallikrein was from Sigma Chemical Co (St. Louis, Mo., U.S.A.), human plasmin and human plasma kallikrein was from Kabi (Stockholm, Sweden).
(§2) Human neutrophil elastase and cathepsin G was purified from extracts of PMNs according to the method described by Baugh and Travis (Biochemistry 15 (1976) 836-843). Peptidyl nitroanilide substrates, S2251, S2586, S2266, S2302 were from Kabi (Stockholm, Sweden). M4765 and S7388 was from Sigma Chemical Co (St. Louis, Mo., U.S.A.) and FXa-1 was from NycoMed (Oslo, Norway).
(§3) Serine proteinases were incubated with various concentrations of KFN 1593 for 30 min. Substrate was then added and residual proteinase activity was measured at 405 nm.
(§4) The three TFPI (domain II) variants were purified from yeast culture medium. Their concentrations were determined from the absorbance at 214 nm using BPTI as a standard. The final concentration was determined by titration with trypsin. Porcine trypsin and human recombinant proteins, factor VIIa, activated protein C (ACP), and tPA were obtained from Novo Nordisk A/S (Bagsvaerd, Denmark), so was human thrombin. Bovine chymotrypsin and glandular kallikrein were obtained from Sigma Chemical Co. (St. Louis, Mo., U.S.A.). Truncated human recombinant tissue factor was obtained from Corvas (San Diego, Calif., U.S.A.). Human neutrophil cathepsin G was purified from extracts of PMNs according to the method described by Baugh and Travis (Biochemistry 15 (1976) 836-843). Human plasmin was from Kabi (Stockholm, Sweden), uPA was from Serono (Milan, Italy), human factor Xa was a gift from Dr. W. Kisiel (Albuquerque, N.M., U.S.A.), and human plasma kallikrein was a gift from Dr. I Schousboe (Copenhagen, Denmark).
(§5) Peptidyl nitroanilide substrates, S2251, S2302, S2266, S2586, S2288, S2444, S2366, and S2238 were from Kabi (Stockholm, Sweden). S7388 and M4765 were from Sigma Chemical Co. (St. Louis, Mo., U.S.A.) and FXa-1 was from Nycomed (Oslo, Norway).
(§6) Serine proteinases were incubated with various concentrations of Kunitz Domain variant for 30 min. Substrate (0.6 mM) was then added and residual proteinase activity was measured at 405 nm.
(§7) The four variants were purified from yeast culture medium. Their concentrations were determined from the absorbance at 214 nm using BTPI as a standard. Porcine trypsin was obtained from Novo Nordisk A/S (Bagsvaerd, Denmark, bovine chymotrypsin (TLCK treated) was obtained from Sigma Chemical Co. (St. Louis, Mo., U.S.A.). Truncated human recombinant tissue factor was obtained from Corvas (San Diego, Calif., U.S.A.). Human plasmin was from Kabi (Stockholm, Sweden). Human neutrophil cathepsin G and elastase were purified from extracts of PMNs according to the method described by Baugh and Travis (Biochemistry 15 (1976) 836-843).
(§8) Peptidyl nitroanilide substrates, S2251, S2586 were from Kabi (Stockholm, Sweden). S7388 and M4765 were from Sigma Chemical Co. (St. Louis, Mo., U.S.A.).
(§9) Serine proteinases were incubated with various concentrations of the variants for 30 min. Substrate ([…]) was then added and residual proteinase activity was measured at 405 nm.

Experiment [5] concerns the target T3, glandular kallikrein (porcine pancreatic kallikrein) (Sus scrofa, UniProt P00752).
T3 construct: purchased Sigma Chemical Co (St. Louis, Mo., U.S.A.)
As to the kind of experiment: Inhibition of serine proteinases: glandular kallikrein. The class given is biochemical. To be noted: Example 3; 30 min incubation, FIG. 3. As for the experimental part:
as §1, §2, §3, §4, §5, §6

A further experiment concerns the target Human plasmin (Homo sapiens, UniProt P00747). The experiment is described as follows: Inhibition of serine proteinases: plasmin. Further details: human plasmin and human plasma kallikrein was from Kabi (Stockholm, Sweden); purchased Kabi (Stockholm, Sweden). To be noted: Example 3; 30 min incubation, FIG. 2. The class given is biochemical. The method, then: as §1, §2, §3, §4, §5, §6, §7, §8, §9

For a further experiment, the target named is T4, human factor Xa (Homo sapiens, UniProt P00742).
T4 construct: human factor Xa was a gift from Dr. W. Kisiel; gift from Dr. W. Kisiel (Albuquerque, N.M., U.S.A.)
T4 sequence (P00742 235-488 limits assumed): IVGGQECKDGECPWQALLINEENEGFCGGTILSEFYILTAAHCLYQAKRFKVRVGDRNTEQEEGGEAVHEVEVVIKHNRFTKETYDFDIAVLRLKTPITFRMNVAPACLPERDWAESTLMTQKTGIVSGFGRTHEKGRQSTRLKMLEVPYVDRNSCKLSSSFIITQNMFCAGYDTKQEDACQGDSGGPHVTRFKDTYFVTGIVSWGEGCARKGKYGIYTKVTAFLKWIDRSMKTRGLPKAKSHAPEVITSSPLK
T4 sequence (P00742 41-179 limits assumed): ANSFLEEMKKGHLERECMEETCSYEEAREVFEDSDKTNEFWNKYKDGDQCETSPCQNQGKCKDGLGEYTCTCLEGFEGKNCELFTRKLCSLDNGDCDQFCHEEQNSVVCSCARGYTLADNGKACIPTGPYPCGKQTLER
The experiment is described as follows: Inhibition of serine proteinases: Factor Xa. The class given is biochemical. The conditions noted are these: Example 3; 30 min incubation; read-out: Ki, factor X. The method, then:
as §1, §2, §3
The three TFPI (domain II) variants were purified from yeast culture medium. Their concentrations were determined from the absorbance at 214 nm using BPTI as a standard. The final concentration was determined by titration with trypsin. […]
as §6

For experiment [6], the target named is T5, Human neutrophil elastase (Homo sapiens, UniProt P08246).
T5 construct: Human neutrophil elastase and cathepsin G was purified from extracts of PMNs; from tissue; host or cells: extracts of human polymorphonuclear leukocytes (PMNs), method of Baugh and Travis
T5 sequence (P08246 30-267): T1 sequence (P08246 30-267)
The experiment is described as follows: Inhibition of serine proteinases: neutrophil elastase. The class given is biochemical. The conditions noted are these: Example 3; 30 min incubation, FIG. 3. The method, then:
as §1, §2
Serine proteinases were incubated with various concentrations of KFN 1593 for 30 min. Substrate was then added and residual proteinase activity was measured at 405 nm. […]
as §7, §8, §9

In experiment [7] the target is T6, plasma kallikrein (Homo sapiens, UniProt P03952). As to the kind of experiment: Inhibition of serine proteinases: plasma kallikrein. The class given is biochemical. To be noted: Example 3; 30 min incubation, FIG. 3. The method, then:
as §1, §2, §3, §4, §5, §6
Target sequence in this assay (P03952 391-638 limits assumed): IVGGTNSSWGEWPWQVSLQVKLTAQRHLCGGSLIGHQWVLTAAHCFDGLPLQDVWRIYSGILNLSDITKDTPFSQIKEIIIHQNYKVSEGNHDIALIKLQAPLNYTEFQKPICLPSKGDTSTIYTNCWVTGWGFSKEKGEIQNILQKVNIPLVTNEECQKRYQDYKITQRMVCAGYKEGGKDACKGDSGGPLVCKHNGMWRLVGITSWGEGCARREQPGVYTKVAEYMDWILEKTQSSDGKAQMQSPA
Target sequence in this assay (P03952 20-390 limits assumed): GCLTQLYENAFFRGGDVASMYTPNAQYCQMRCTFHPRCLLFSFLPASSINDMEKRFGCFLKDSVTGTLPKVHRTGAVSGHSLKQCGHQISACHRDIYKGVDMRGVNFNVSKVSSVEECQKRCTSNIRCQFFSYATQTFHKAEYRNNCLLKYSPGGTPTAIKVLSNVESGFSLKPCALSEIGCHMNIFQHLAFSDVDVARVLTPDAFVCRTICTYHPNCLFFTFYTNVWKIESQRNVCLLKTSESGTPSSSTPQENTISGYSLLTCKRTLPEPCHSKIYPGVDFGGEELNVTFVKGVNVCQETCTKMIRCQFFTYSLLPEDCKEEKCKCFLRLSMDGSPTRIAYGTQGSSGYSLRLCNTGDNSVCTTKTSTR

In experiment [8] the target is T6, plasma kallikrein. The conditions noted are these: cf. WO 89/10374; cited from earlier work.
Target sequence in this assay (P03952 20-638, species assumed): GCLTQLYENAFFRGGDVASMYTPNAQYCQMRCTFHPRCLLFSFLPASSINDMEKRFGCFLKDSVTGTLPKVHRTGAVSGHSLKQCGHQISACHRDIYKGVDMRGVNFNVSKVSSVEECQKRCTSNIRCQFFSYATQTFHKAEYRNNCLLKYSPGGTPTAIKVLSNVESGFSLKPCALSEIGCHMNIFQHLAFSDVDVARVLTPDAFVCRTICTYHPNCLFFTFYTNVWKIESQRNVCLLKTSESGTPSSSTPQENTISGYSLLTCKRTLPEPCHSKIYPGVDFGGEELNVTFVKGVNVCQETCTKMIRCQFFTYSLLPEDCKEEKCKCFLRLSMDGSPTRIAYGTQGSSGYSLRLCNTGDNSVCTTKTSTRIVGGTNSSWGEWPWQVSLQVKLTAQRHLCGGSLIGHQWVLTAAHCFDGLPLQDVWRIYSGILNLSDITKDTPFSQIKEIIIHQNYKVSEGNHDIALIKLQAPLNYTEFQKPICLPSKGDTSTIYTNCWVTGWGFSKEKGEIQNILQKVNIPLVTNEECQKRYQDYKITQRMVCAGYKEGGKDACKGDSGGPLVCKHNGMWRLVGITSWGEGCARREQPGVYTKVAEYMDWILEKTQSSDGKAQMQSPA
The conditions of experiment [9]: high doses; cardiac surgery including cardiopulmonary bypass operations; cited from earlier work.
The target in experiment [10] is Human neutrophil elastase (human) (UniProt P08246). The experiment is described as follows: apparent Ki; 4 nM neutrophil elastase, substrate M4765, 30 min preincubation, residual activity at 405 nm.
For experiment [11] the target is unchanged.
Experiment [12] has as its target bovine chymotrypsin (TLCK treated) (bovine) (UniProt P00766).
Experiment [13] has the same target. As to the kind of experiment: apparent Ki; 2.5 nM chymotrypsin, substrate S2586, 30 min preincubation, residual activity at 405 nm.

Bounds are passed on as bounds.

T3 sequence (P00752 8-246): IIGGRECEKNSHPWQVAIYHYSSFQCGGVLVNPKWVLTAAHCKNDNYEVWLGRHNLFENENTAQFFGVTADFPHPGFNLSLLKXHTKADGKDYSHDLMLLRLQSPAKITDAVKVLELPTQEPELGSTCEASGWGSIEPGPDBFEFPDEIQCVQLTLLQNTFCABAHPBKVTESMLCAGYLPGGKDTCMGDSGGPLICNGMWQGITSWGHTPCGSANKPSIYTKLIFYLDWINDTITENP
Chain of Human plasmin (P00747 581-810 limits assumed): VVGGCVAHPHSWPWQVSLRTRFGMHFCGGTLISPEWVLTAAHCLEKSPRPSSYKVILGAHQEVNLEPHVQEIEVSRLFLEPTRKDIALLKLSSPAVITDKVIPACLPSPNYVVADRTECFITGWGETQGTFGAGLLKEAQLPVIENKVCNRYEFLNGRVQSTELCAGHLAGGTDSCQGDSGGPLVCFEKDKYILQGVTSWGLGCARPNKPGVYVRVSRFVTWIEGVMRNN
Chain of Human plasmin (P00747 97-580 limits assumed): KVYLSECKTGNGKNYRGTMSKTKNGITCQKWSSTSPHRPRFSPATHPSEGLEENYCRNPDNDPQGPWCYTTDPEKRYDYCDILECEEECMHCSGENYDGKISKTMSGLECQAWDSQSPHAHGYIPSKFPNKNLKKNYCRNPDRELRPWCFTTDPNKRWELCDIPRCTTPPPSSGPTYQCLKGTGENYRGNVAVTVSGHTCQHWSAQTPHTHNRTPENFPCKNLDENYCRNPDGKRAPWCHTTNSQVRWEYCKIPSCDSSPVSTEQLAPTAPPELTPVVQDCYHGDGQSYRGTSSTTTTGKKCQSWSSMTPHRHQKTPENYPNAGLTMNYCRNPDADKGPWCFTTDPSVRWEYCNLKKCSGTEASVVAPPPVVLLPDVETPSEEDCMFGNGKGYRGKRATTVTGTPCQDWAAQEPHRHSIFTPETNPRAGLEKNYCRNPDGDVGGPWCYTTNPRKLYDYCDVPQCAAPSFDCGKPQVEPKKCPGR

Consider aprotinin(1-58, Val15), for which the “effect on collagenase (in words)” value in the experiment with collagenase is on record as “inhibitory effect”. For the same substance, on granulocyte elastase, the “effect on granulocyte elastase (in words)” value is on record as “relatively high selectivity”.
“TFPI-2, the second Kunitz domain of tissue factor pathway inhibitor, from yeast strain KFN-1593 (from UniProt P10646)”: the Ki in [1] is 5 nM; in experiment [2] it was 150 nM. This substance had a residual proteinase activity at 405 nm in experiment [3] of 5 nM.
In the case of “KFN 1593: Unmodified TFPI Kunitz domain II (second Kunitz domain of tissue factor pathway inhibitor), produced from yeast strain KFN-1593 (RFESLEECKKMCTRDNANRIIKTTLQQEKPDFCFLEEDPGICRGYITRYFYNNQTKQC)”, the “inhibition of Cathepsin G (in words)” value in experiment [4] is listed as “essentially absent”. Further, in experiment [5], the “inhibition of kallikreins (in words): glandular kallikrein” value was “essentially absent”. The “inhibition of plasmin (in words)” value with Human plasmin is reported as “moderate inhibition”. The Ki in the experiment with human factor Xa worked out at 150 nM. For the same substance, the “inhibition of neutrophil elastase (in words)” value in [6] was “moderate inhibition”. In addition, in the experiment with plasma kallikrein [7], the “inhibition of kallikreins (in words): plasma kallikrein” value is listed as “essentially absent”.
In the case of aprotinin (3-58, Arg15, Ala17, Ser42), at plasma kallikrein [8], the “plasma kallikrein inhibitory effect (in words)” value is “excellent plasma kallikrein inhibitory effect”.
For the substance aprotinin, in experiment [9], the “blood loss in connection with cardiac surgery” value is listed as “significantly reduces blood loss”.
In the case of aprotinin (1-58, Ala15), on granulocyte elastase, the “effect on granulocyte elastase (in words)” value is “weak effect”.
Turning to “[R15L]-TFPI-2 from yeast strain KFN-1928 (from UniProt P10646)”, the Ki in experiment [10] was 2.2 nM; in experiment [13], less than 5 nM. Further, the residual proteinase activity at 405 nm (apparent Ki) in [11] stood at 2.2 nM. For the same substance, the apparent Ki in experiment [12] is less than 5 nM.
